{
  "source": "paper doi:10.1101/575910",
  "about": "(bioRxiv, 2019)",
  "binders": {"B1": {"name": "BTB-BACK fragment of Btbd6 (Btbd6a residues 119-361) (domain or fragment)", "chain": "SAHPTLRERNALMFNNEQMADVHFIVGPPGESQRVPAHKYVLAVGSSVFCAMFYGDLAEGDSDIHIPDVEPAAFLILLKYMYSDEIELAPDTVLATLYAAKKYLVSALARACVGFLETSLEARNACVLLSQSRLFEEPELTQRCWEVIDAQAELALRSEGFSEIDLPTLESILHRETLNVKESVVFQAVLGWADAECRRQGLSPTSQNQRSVLGKALHLVRLPSMTLQEFADGAAQVDILTLE", "modifications": "NT-647 amine-reactive dye (RED-NHS kit) where used as the labelled partner in MST"}, "B2": {"name": "BTB domain of Plzf (Plzfa residues 8-126) (domain or fragment)", "chain": "MIQLQNPNHPNALLHKANQMRLAGTLCDVVIMVDSQEFHAHRTVLACTSKMFEILFHRNSQHYTLDFLSPKTFQQILEYAYTATLQAKVEDLDDLLYAAEILEIEYLEEQCLKILETIQ", "modifications": "NT-647 amine-reactive dye (RED-NHS kit) where used as the labelled partner in MST"}},
  "key": {"[1]": {"molecular_target": "N-terminal region of Cul3 (Cul3a residues 1-379) (zebrafish, UniProt F6NVK8 1-379)", "assay": "MST"}, "[2]": {"molecular_target": "Cul3 NTD lacking the first 18 amino acids (zebrafish, UniProt F6NVK8 19-379)", "assay": "MST"}},
  "data": [
    {"binder": "B1", "values": [
      {"measurement": "Kd", "setting": "[1]", "result": 12, "unit": "nM"}
    ]},
    {"binder": "B2", "values": [
      {"measurement": "Kd", "setting": "[1]", "result": 2900, "unit": "nM"},
      {"measurement": "Kd", "setting": "[2]", "result": "≥ 20", "unit": "µM"}
    ]}
  ]
}
